# Data taken from patent US20160297884A1 (Pfizer, published 2016).
# T1: Human BCMA (human, UniProt Q02223 1-54, limits assumed)
# T1 construct: Soluble analyte in SPR; construct not described; also called huBCMA; B-cell maturation antigen
# T1 sequence (looked up): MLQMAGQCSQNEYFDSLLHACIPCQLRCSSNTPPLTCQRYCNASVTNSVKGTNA
# B1: L3.PY/L1.AH/H2.YQ (antibody, V domains shown)
# VH: EVQLLESGGGLVQPGGSLRLSCAASGFTFGSYAMTWVRQAPGKGLEWVSAISYQGGNTFYADSVKGRFTISRDNSKNTLYLQMNSLRAEDTAVYYCARVSPIASGMDYWGQGTLVTVSS
# VL: EIVLTQSPGTLSLSPGERATLSCRASQSVSAHYLAWYQQKPGQAPRLLIYGASSRATGIPDRFSGSGSGTDFTLTISRLEPEDFAVYYCQHYPYPPSFTFGQGTKVEIK
# notes: IgG
# B2: L3.PY/L1.PS/H2.HA (antibody, V domains shown)
# VH: EVQLLESGGGLVQPGGSLRLSCAASGFTFGSYAMTWVRQAPGKGLEWVSAISHAGGNTFYADSVKGRFTISRDNSKNTLYLQMNSLRAEDTAVYYCARVSPIASGMDYWGQGTLVTVSS
# VL: EIVLTQSPGTLSLSPGERATLSCRASQSVSSSYPSWYQQKPGQAPRLLIYGASSRATGIPDRFSGSGSGTDFTLTISRLEPEDFAVYYCQHYPYPPSFTFGQGTKVEIK
# notes: IgG
# B3: L3.PY/L1.AH/H3.YA (antibody, V domains shown)
# VH: EVQLLESGGGLVQPGGSLRLSCAASGFTFGSYAMTWVRQAPGKGLEWVSAISGSGGNTFYADSVKGRFTISRDNSKNTLYLQMNSLRAEDTAVYYCARVSPIYAGMDYWGQGTLVTVSS
# VL: EIVLTQSPGTLSLSPGERATLSCRASQSVSAHYLAWYQQKPGQAPRLLIYGASSRATGIPDRFSGSGSGTDFTLTISRLEPEDFAVYYCQHYPYPPSFTFGQGTKVEIK
# notes: IgG
# B4: L3.PY/L1.AH/P6E01 (antibody, V domains shown)
# VH: EVQLLESGGGLVQPGGSLRLSCAASGFTFGSYAMTWVRQAPGKGLEWVSAISGSGGNTFYADSVKGRFTISRDNSKNTLYLQMNSLRAEDTAVYYCARVSPIASGMDYWGQGTLVTVSS
# VL: EIVLTQSPGTLSLSPGERATLSCRASQSVSAHYLAWYQQKPGQAPRLLIYGASSRATGIPDRFSGSGSGTDFTLTISRLEPEDFAVYYCQHYPYPPSFTFGQGTKVEIK
# notes: IgG
# B5: L3.PY/L1.PH/P6E01 (antibody, V domains shown)
# VH: EVQLLESGGGLVQPGGSLRLSCAASGFTFGSYAMTWVRQAPGKGLEWVSAISGSGGNTFYADSVKGRFTISRDNSKNTLYLQMNSLRAEDTAVYYCARVSPIASGMDYWGQGTLVTVSS
# VL: EIVLTQSPGTLSLSPGERATLSCRASQSVSPHYLAWYQQKPGQAPRLLIYGASSRATGIPDRFSGSGSGTDFTLTISRLEPEDFAVYYCQHYPYPPSFTFGQGTKVEIK
# notes: IgG
# B6: L3.PY/L1.PS/H2.DY (antibody, V domains shown)
# VH: EVQLLESGGGLVQPGGSLRLSCAASGFTFGSYAMTWVRQAPGKGLEWVSAIDYSGGNTFYADSVKGRFTISRDNSKNTLYLQMNSLRAEDTAVYYCARVSPIASGMDYWGQGTLVTVSS
# VL: EIVLTQSPGTLSLSPGERATLSCRASQSVSSSYPSWYQQKPGQAPRLLIYGASSRATGIPDRFSGSGSGTDFTLTISRLEPEDFAVYYCQHYPYPPSFTFGQGTKVEIK
# notes: IgG
# B7: L3.PY/L1.AH/H3.AE (antibody, V domains shown)
# VH: EVQLLESGGGLVQPGGSLRLSCAASGFTFGSYAMTWVRQAPGKGLEWVSAISGSGGNTFYADSVKGRFTISRDNSKNTLYLQMNSLRAEDTAVYYCARVSPIAAEMDYWGQGTLVTVSS
# VL: EIVLTQSPGTLSLSPGERATLSCRASQSVSAHYLAWYQQKPGQAPRLLIYGASSRATGIPDRFSGSGSGTDFTLTISRLEPEDFAVYYCQHYPYPPSFTFGQGTKVEIK
# notes: IgG
# B8: L3.PY/L1.PS/H3.AQ (antibody, V domains shown)
# VH: EVQLLESGGGLVQPGGSLRLSCAASGFTFGSYAMTWVRQAPGKGLEWVSAISGSGGNTFYADSVKGRFTISRDNSKNTLYLQMNSLRAEDTAVYYCARVSPIAAQMDYWGQGTLVTVSS
# VL: EIVLTQSPGTLSLSPGERATLSCRASQSVSSSYPSWYQQKPGQAPRLLIYGASSRATGIPDRFSGSGSGTDFTLTISRLEPEDFAVYYCQHYPYPPSFTFGQGTKVEIK
# notes: IgG
# B9: L3.PY/L1.AH/H3.AQ (antibody, V domains shown)
# VH: EVQLLESGGGLVQPGGSLRLSCAASGFTFGSYAMTWVRQAPGKGLEWVSAISGSGGNTFYADSVKGRFTISRDNSKNTLYLQMNSLRAEDTAVYYCARVSPIAAQMDYWGQGTLVTVSS
# VL: EIVLTQSPGTLSLSPGERATLSCRASQSVSAHYLAWYQQKPGQAPRLLIYGASSRATGIPDRFSGSGSGTDFTLTISRLEPEDFAVYYCQHYPYPPSFTFGQGTKVEIK
# notes: IgG
# B10: L3.PY/L1.PS/H3.AE (antibody, V domains shown)
# VH: EVQLLESGGGLVQPGGSLRLSCAASGFTFGSYAMTWVRQAPGKGLEWVSAISGSGGNTFYADSVKGRFTISRDNSKNTLYLQMNSLRAEDTAVYYCARVSPIAAEMDYWGQGTLVTVSS
# VL: EIVLTQSPGTLSLSPGERATLSCRASQSVSSSYPSWYQQKPGQAPRLLIYGASSRATGIPDRFSGSGSGTDFTLTISRLEPEDFAVYYCQHYPYPPSFTFGQGTKVEIK
# notes: IgG
# B11: L3.PY/L1.PS/H2.QL (antibody, V domains shown)
# VH: EVQLLESGGGLVQPGGSLRLSCAASGFTFGSYAMTWVRQAPGKGLEWVSAISGSGGNTFYADQLKGRFTISRDNSKNTLYLQMNSLRAEDTAVYYCARVSPIASGMDYWGQGTLVTVSS
# VL: EIVLTQSPGTLSLSPGERATLSCRASQSVSSSYPSWYQQKPGQAPRLLIYGASSRATGIPDRFSGSGSGTDFTLTISRLEPEDFAVYYCQHYPYPPSFTFGQGTKVEIK
# notes: IgG
# B12: L3.PY/L1.PS/H2.YQ (antibody, V domains shown)
# VH: EVQLLESGGGLVQPGGSLRLSCAASGFTFGSYAMTWVRQAPGKGLEWVSAISYQGGNTFYADSVKGRFTISRDNSKNTLYLQMNSLRAEDTAVYYCARVSPIASGMDYWGQGTLVTVSS
# VL: EIVLTQSPGTLSLSPGERATLSCRASQSVSSSYPSWYQQKPGQAPRLLIYGASSRATGIPDRFSGSGSGTDFTLTISRLEPEDFAVYYCQHYPYPPSFTFGQGTKVEIK
# notes: IgG
# B13: L3.PY/L1.PS/H3.TAQ (antibody, V domains shown)
# VH: EVQLLESGGGLVQPGGSLRLSCAASGFTFGSYAMTWVRQAPGKGLEWVSAISGSGGNTFYADSVKGRFTISRDNSKNTLYLQMNSLRAEDTAVYYCTRVSPIAAQMDYWGQGTLVTVSS
# VL: EIVLTQSPGTLSLSPGERATLSCRASQSVSSSYPSWYQQKPGQAPRLLIYGASSRATGIPDRFSGSGSGTDFTLTISRLEPEDFAVYYCQHYPYPPSFTFGQGTKVEIK
# notes: IgG
# B14: L3.PY/L1.FF/P6E01 (antibody, V domains shown)
# VH: EVQLLESGGGLVQPGGSLRLSCAASGFTFGSYAMTWVRQAPGKGLEWVSAISGSGGNTFYADSVKGRFTISRDNSKNTLYLQMNSLRAEDTAVYYCARVSPIASGMDYWGQGTLVTVSS
# VL: EIVLTQSPGTLSLSPGERATLSCRASQSVSSFFLAWYQQKPGQAPRLLIYGASSRATGIPDRFSGSGSGTDFTLTISRLEPEDFAVYYCQHYPYPPSFTFGQGTKVEIK
# notes: IgG
# B15: L3.PY/L1.PS/H2.LT (antibody, V domains shown)
# VH: EVQLLESGGGLVQPGGSLRLSCAASGFTFGSYAMTWVRQAPGKGLEWVSAISLTGGNTFYADSVKGRFTISRDNSKNTLYLQMNSLRAEDTAVYYCARVSPIASGMDYWGQGTLVTVSS
# VL: EIVLTQSPGTLSLSPGERATLSCRASQSVSSSYPSWYQQKPGQAPRLLIYGASSRATGIPDRFSGSGSGTDFTLTISRLEPEDFAVYYCQHYPYPPSFTFGQGTKVEIK
# notes: IgG
# Assays:
# [1] = target: T1, Human BCMA; experiment: SPR, IgG immobilised, 37 C
# Procedure, shortened: (§1)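 Rate constants come from a 1:1 Langmuir model including mass transport, fitted to double-referenced sensorgrams. Analyte was human or cynomolgus BCMA in five rising concentrations up to 50 nM over amine-coupled IgG; runs were at 25° C or 37° C.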
# [2] = target: T2, cynomolgus monkey BCMA (cynomolgus monkey, UniProt A0A2K5UD97 1-53); experiment: SPR, IgG immobilised, 37 C
# T2 construct: Soluble analyte in SPR; construct not described; also called cyBCMA; Cyno BCMA
# Procedure, shortened: as §1
# T2 sequence (A0A2K5UD97 entry or part of it): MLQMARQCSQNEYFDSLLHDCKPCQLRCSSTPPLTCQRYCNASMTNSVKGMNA
Binder,Kd [1],T ½ [1],koff [1],kon [1],Kd [2],T ½ [2],koff [2],kon [2]
B1,0.8 nM,6 min,0.00193 s⁻¹,2.42e+06 M⁻¹ s⁻¹,2.74 nM,2.68 min,0.00431 s⁻¹,1.58e+06 M⁻¹ s⁻¹
B2,3.21 nM,1.09 min,0.0106 s⁻¹,3.3e+06 M⁻¹ s⁻¹,1.86 nM,4.3 min,0.00269 s⁻¹,1.45e+06 M⁻¹ s⁻¹
B3,0.5 nM,7.73 min,0.0015 s⁻¹,3e+06 M⁻¹ s⁻¹,2.22 nM,2.2 min,0.00526 s⁻¹,2.37e+06 M⁻¹ s⁻¹
B4,0.49 nM,9.19 min,0.00126 s⁻¹,2.55e+06 M⁻¹ s⁻¹,2.65 nM,2.02 min,0.00572 s⁻¹,2.16e+06 M⁻¹ s⁻¹
B5,0.32 nM,12.7 min,0.000913 s⁻¹,2.81e+06 M⁻¹ s⁻¹,3.63 nM,1.46 min,0.00789 s⁻¹,2.17e+06 M⁻¹ s⁻¹
B6,1.12 nM,3.2 min,0.00361 s⁻¹,3.22e+06 M⁻¹ s⁻¹,1.99 nM,3.06 min,0.00378 s⁻¹,1.9e+06 M⁻¹ s⁻¹
B7,0.52 nM,6.7 min,0.00173 s⁻¹,3.32e+06 M⁻¹ s⁻¹,1.58 nM,3.25 min,0.00356 s⁻¹,2.25e+06 M⁻¹ s⁻¹
B8,0.55 nM,6.46 min,0.00179 s⁻¹,3.26e+06 M⁻¹ s⁻¹,1.72 nM,2.67 min,0.00433 s⁻¹,2.52e+06 M⁻¹ s⁻¹
B9,0.65 nM,5.85 min,0.00197 s⁻¹,3.03e+06 M⁻¹ s⁻¹,1.78 nM,2.9 min,0.00399 s⁻¹,2.24e+06 M⁻¹ s⁻¹
B10,0.46 nM,7.93 min,0.00146 s⁻¹,3.14e+06 M⁻¹ s⁻¹,1.68 nM,2.8 min,0.00413 s⁻¹,2.46e+06 M⁻¹ s⁻¹
B11,20.6 nM,0.04 min,0.314 s⁻¹,1.52e+07 M⁻¹ s⁻¹,0.97 nM,18.2 min,0.000636 s⁻¹,657000 M⁻¹ s⁻¹
B12,1.28 nM,2.69 min,0.0043 s⁻¹,3.35e+06 M⁻¹ s⁻¹,1.87 nM,3.09 min,0.00374 s⁻¹,2e+06 M⁻¹ s⁻¹
B13,0.76 nM,4.7 min,0.00246 s⁻¹,3.25e+06 M⁻¹ s⁻¹,2.14 nM,2.09 min,0.00552 s⁻¹,2.58e+06 M⁻¹ s⁻¹
B14,0.59 nM,8.18 min,0.00141 s⁻¹,2.39e+06 M⁻¹ s⁻¹,2.41 nM,1.96 min,0.00591 s⁻¹,2.45e+06 M⁻¹ s⁻¹
B15,1.37 nM,2.49 min,0.00465 s⁻¹,3.4e+06 M⁻¹ s⁻¹,1.89 nM,2.81 min,0.00411 s⁻¹,2.17e+06 M⁻¹ s⁻¹
